The target of assay [1] is T1, Human PD-L1 full-length (human, UniProt Q9NZQ7 19-290).
T1 construct: also called PDL01021; CHOK1SV/huPDL1
Kind of assay: flow cytometry, CHOK1SV/human PD-L1 cells. (In general: In flow cytometry, cells or beads pass a laser one at a time.)

Assay [2] has as its target T2, human CD40 full-length (human, UniProt P25942 21-277).
T2 construct: Also used for CD40 of Daudi cells, of CD40-expressing HEK293 cells and of the BPS CD40/NFkB HEK293 reporter cells where the row says so; also called CD4001012; CHOK1SV/CD40
Briefly: flow cytometry, CHOK1SV/human CD40 cells.

Substitutions are numbered along the chain they refer to.

T2 sequence (P25942 21-277): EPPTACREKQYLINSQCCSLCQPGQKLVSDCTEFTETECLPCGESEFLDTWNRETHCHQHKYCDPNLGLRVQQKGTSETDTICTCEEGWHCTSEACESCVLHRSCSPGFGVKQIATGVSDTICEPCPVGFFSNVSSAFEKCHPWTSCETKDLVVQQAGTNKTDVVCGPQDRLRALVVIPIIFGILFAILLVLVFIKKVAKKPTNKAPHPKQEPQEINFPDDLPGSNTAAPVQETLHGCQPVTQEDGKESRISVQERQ
T1 sequence (Q9NZQ7 19-290): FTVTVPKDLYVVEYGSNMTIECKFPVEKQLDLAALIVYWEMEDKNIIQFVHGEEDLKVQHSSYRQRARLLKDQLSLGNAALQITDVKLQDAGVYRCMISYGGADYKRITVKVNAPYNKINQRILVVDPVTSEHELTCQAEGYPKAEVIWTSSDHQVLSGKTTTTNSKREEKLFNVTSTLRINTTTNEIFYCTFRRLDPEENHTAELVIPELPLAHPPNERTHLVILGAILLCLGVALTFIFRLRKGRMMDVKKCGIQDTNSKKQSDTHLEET

B1: CD4001047 (bispecific antibody)
scFv-Fc-scFv chain: DIVMTQSHKFMSTSVGDRVSITCKASQDVNTAVAWYQQKPGQSPKLLIYSASYRYTGVPDRFTGSGSGTDFTFTISSVQAEDLAVYYCQQHYSTPWTFGGGTKLEIKGGGGSGGGGSGGGGSGGGGSQVQLQQSGAELAKPGASVKMSCKASGYAFTTYWMHWVKQRPGQGLEWIGYINPTTGYTDYNQKFKDKATLTADKSSSTAYMQLSSLTSEDSAVYYCARWGLPPFAYWGQGTLVTVSAEPKSSDKTHTCPPCPAPPAAAPSVFLFPPKPKDTLMISRTPEVTCVVVDVSHEDPEVKFNWYVDGVEVHNAKTKPREEQYNSTYRVVSVLTVLHQDWLNGKEYKCAVSNKALPAPIEKTISKAKGQPREPQVYTLPPSRDELTKNQVSLTCLVKGFYPSDIAVEWESNGQPENNYKTTPPVLDSDGSFFLYSKLTVDKSRWQQGNVFSCSVMHEALHNHYTQKSLSLSPGGGGSPSEVQLVESGGGLVKPGGSLRLSCAASGFTFSDYGMAWVRQAPGKGLEWVAFITSLAYIIYYADSVKGRFTISRDNAKNSLYLQMNSLRAEDTAVYYCARNYGSSPYYFDYWGQGTLVTVSSGGGGSGGGGSGGGGSGGGGSDIQMTQSPSSLSASVGDRVTITCRASQDINKFLSWYQQKPGKAPKLLIHYTSSLQPGVPSRFSGSGSGTDFTLTISSLQPEDFATYYCLQYDNLYTFGQGTKLEIK
notes: also called CD40_2H7 x hFc x PDL_5F9
B1: in assay [1], the binding result is recorded as “binds”.

B2: CD4001204 (Fc fusion)
scFv: DIQMTQSPSSVSASVGDRVTITCRSSQSLLFSVNQKNYLAWYQQKPGKAPKLLIYWASTRESGVPDRFSGSGSGTDFTLTISSLQPEDFATYYCQHYYSYPWTFGQGTKVEIKGGGGSGGGGSGGGGSGGGGSQVQLVQSGAEVKKPGSSVKVSCKASGYTFSTSWISWVRQAPGQGLEWMGGILPGSGSTNYNQKFQGRVTITADTSTSTAYMELSSLRSEDTAVYYCARGDDGSYVRWYFDHWGQGTLVTVSS
notes: humanized 1D5 variant; not shown: wildtype human IgG1 Fc and its linker to the scFv
Take B2: in assay [2], the binding result is “binds”.

B3: CD4001205 (Fc fusion)
scFv: B2 scFv with Q195E, Q198K, R200K, T207E
notes: as for B2
For the molecule B3, the binding result in assay [2] is “binds”.

B4: CD4001207 (Fc fusion)
scFv: B2 scFv with S168E, V170I, G183S, N194A, Q195E, Q198K, R200K, T207E
notes: as for B2
In the case of B4, the binding result in assay [2] is on record as “binds”.

B5: CD4001206 (Fc fusion)
scFv: B2 scFv with S168E, V170I, G183S, N194A
notes: as for B2
Regarding B5, in assay [2], the binding result is “binds”.

The record behind these values is US20260217833A1 (APTEVO RESEARCH AND DEVELOPMENT, published 2026).
